Assay results from US20130078188.

Tests used:
[1] = target: T1, Cy7-NH-e9-c(S-Peg12) oDPRSFL-r9-c(Cy5)-CONH2 (5, …)
T1 chain: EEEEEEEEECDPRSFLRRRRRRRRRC

[2] = target: T2, Cy7-NH-e9-c(S-Peg12) oPPRSFL-r9-c(Cy5)-CONH2 (10, …)
T2 chain: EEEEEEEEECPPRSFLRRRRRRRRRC

[3] = target: T3, Cy7-NH-e9-c(S-Peg12)oPLGC(Me)AG-r9-c(Cy5)-CONH2 (20, …(Me)AG)
T3 chain: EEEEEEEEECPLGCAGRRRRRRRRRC

B1: plasmin (protein)
chain: KVYLSECKTGNGKNYRGTMSKTKNGITCQKWSSTSPHRPRFSPATHPSEGLEENYCRNPDNDPQGPWCYTTDPEKRYDYCDILECEEECMHCSGENYDGKISKTMSGLECQAWDSQSPHAHGYIPSKFPNKNLKKNYCRNPDRELRPWCFTTDPNKRWELCDIPRCTTPPPSSGPTYQCLKGTGENYRGNVAVTVSGHTCQHWSAQTPHTHNRTPENFPCKNLDENYCRNPDGKRAPWCHTTNSQVRWEYCKIPSCDSSPVSTEQLAPTAPPELTPVVQDCYHGDGQSYRGTSSTTTTGKKCQSWSSMTPHRHQKTPENYPNAGLTMNYCRNPDADKGPWCFTTDPSVRWEYCNLKKCSGTEASVVAPPPVVLLPDVETPSEEDCMFGNGKGYRGKRATTVTGTPCQDWAAQEPHRHSIFTPETNPRAGLEKNYCRNPDGDVGGPWCYTTNPRKLYDYCDVPQCAAPSFDCGKPQVEPKKCPGRVVGGCVAHPHSWPWQVSLRTRFGMHFCGGTLISPEWVLTAAHCLEKSPRPSSYKVILGAHQEVNLEPHVQEIEVSRLFLEPTRKDIALLKLSSPAVITDKVIPACLPSPNYVVADRTECFITGWGETQGTFGAGLLKEAQLPVIENKVCNRYEFLNGRVQSTELCAGHLAGGTDSCQGDSGGPLVCFEKDKYILQGVTSWGLGCARPNKPGVYVRVSRFVTWIEGVMRNN
- kcat/Km [1]: 10000 M⁻¹ s⁻¹
- kcat/Km, fold lower than for thrombin [2]: 14.3 fold lower kcat/Km
- peptide cleavage, SDS-PAGE with Cy5/Cy7 ratio imaging [3]: not cleaved by any of the pro-coagulation enzymes
